# Test: soluble on expression in E. coli; label from the status in PepcDB or PDB records
row,Sequence,soluble on expression in E. coli
1,MPQFSNRRRVPHSAQQMFDLVADVERYPQFVPLCKALKIRERIQQPDGNEVVIADMTVSFKLVQETFTSRVTLDRANLKILVEYLKGPFSNLENRWTFAAKTERACEVGFFIAYEFKSRMLATLMGAMFDTAFHRFAEAFETRADQIYGTGPKLSRALEHHHHHH,not soluble
2,MPQIQSSHSNHFDFTIDTADRTKLLMSYLVVPTTANFNNVMHGGELLNLLDKVAYVCSTRYCAKGTVTLSVDGVTFKYPIPVGNLLTFLASINYVGNTSCEVGIKVLSEDIKTREITHTNSCYFTMVAVENGKPTPMPKYEPKTEVEIRRYEGALKRKEMRTRGYLKSGKHEGVLEHHHHHH,not soluble
3,MPQITLSAEVQPEQMGQRLDQTLAELFPEYSRSRLKTWIEADLVKLNDRITNIPREKVLGGERIEIIVEVEDETRFEAENIPLNIVYEDDDIIVINKPKDLVVHPGAGNPNGTVLNALLYHYPPIVEVPRAGIVHRLDKDTTGLMVVAKTIPAQTKLVRDLQKRKITREYEAVASGIMTKGGTVDQPMARHATKRTLMAVHPMGKPAVTHYRIMENYRNYTRLRLRLETGRTHQIRVHMAHIAHPLLGDQTYGGRPRPPKNASEDFMEVLRNFKRQALHAVMLRLAHPITGEMMEWYAPLPDDFVELLNALKADYLEHQDELDY,soluble
4,MPQYKLTYFDLRGWAEPARQLFHLSHTPYDDIRIPMADTEGKWEKMRDKTPFGQLPVLNVDGFDIPQSAAICRYLAKKFGYAGKTPEEEAWADAVVDQFKDFSVAFKTLLFATRAGKPEEEILKIRYEIFNPARDVYFILLNRILKKSKSGYLVGDGLTWADLVIADNLHSLEKLRAIDDDDEGHQNLKKYKEKIYGTPDLEDHIATRMDTEV,not soluble
5,MPRAYWKGTLKLSLVTCPVALYPATTSVEKTRFHMINAETGNRLKQQMIDEDTGDVVEKDQKARGYEVRKGKYIEIEKDELEAVQIESTHTIDIDSFVPADEIDQRFLNHPYYIVPDGKAGTDAFAVIRDAMKDKGHVALGRIVLTNREHVLAIEPFGKGLLATTLRYPYELRDAD,not soluble
6,MPRFSCYEVRSEFPELERGIVYLDNAASTLKPRRVVEAMREFSYRSYANVHRGVHRLSMEASKAYEDAHEVVARLVGGSWDEVVFTRNTTEAMQLAALTLAYNGLLRGGEVLVTAADHHSTLLPWVRAARLGGGRARILPLDGRGVPRWDLLEDYITEDTRAVAVGHVSNVTGVVAPVEDIVKAAKKVGALVVLDSAQGVPHLPVDFRRMGVDMAAFSGHKMLGPTGIGVLWARRDLLEELEPPLGGGGTVSRVRLQGGSVEIEWEEPPWKFEAGTPPIIEAVGLAEAANMLMEIGMEHVARHEDELTSHTMKLLEPLYSEGLIRYVGPDKPGERHGIVSITTHLKSPDELGLLLDRRGIAVRTGLHCAHILHDHVDASMGSVWASFYIYNCKEDAERLAEALEEILTTRR,soluble
7,MPRHETDCRYFANGYCSKGNTCTFTHDVATRNENICHFNLVGKCSYGRACRFLHTRPRNDELPSCSTPQTSQNQQNLQNSGQRVRPKQLPELKFNAQAAEFVPRWKMPQRGPVTSYAGAAASADHGESSSSFQSSHEQAQLMMCPYHQKSGDCNRQDMDCPFAHGNYCDMCQQWSLHPYNAELRKKHENECVANHTTEMERAFLLQKTEQKTCGICMENIFEKNLRFGILNGCQHCFCLDCIRQWRSKDQENVELATKTVRSCPECRQHSDYVIPSLFWVESGQEKDLLIEMYKENTKRKICKYYSNERSRGACPFGNKCFYKHQLPDGSIDPGEAPSSRRRPRLVDFLFDDNSDSDEETFRRFQEEHEEEQEELLRFVAETLPEADEESELFRQITEVLRHYQISGHRRGFQ,not soluble
8,MPRPQGTVAAAAATTSMSSTRARKDPLRRIGNGNAVAGGLDMTRVGILSDRELAFFQRLAYTGSQAAEQQQRDARKQEEDRRRELSKTRTAGWTDTIEARHDQFVQAQQDAKDAAEARQKVLDELYAKQLEEEHKAVIARQALEHLKEDPRGRHLRSMNMLHEALKARKEQVAYKQMLQREDEAQNANAQREFQLQRWGDQAEELHKKLKARQRNVEEKNANLETVLFQIDQRRQERAVQQQDRKHIDQEAAEERAEQQEEAAQRRARELENGAYNKAHSRPALTRSEKLQTRVAENVKDEAALRAEEEKVDSIKRWVMERQQNKLAAFEERKKAGLRRYLDEAKQENLPTYRTQDVFEKGESFLQKLYDGDVKQQEKQHEYRLEMEQQRLEMEEQKAAEARGDVVGSGDGADGSTSRRHAAATTAAGFLNKAEEMAYAEEMRRYPEQLRAKEAEEAAARRAEALRIERIQKLQAAEKRENARRAVEARREEFRQQQSQQEADDARYRAYIDSVVPADMDPILYRKATQLH,soluble
9,MPRVKAAQAGRQSSAKRHLAEQFAVGEIITDMAKKEWKVGLPIGQGGFGCIYLADMNSSESVGSDAPCVVKVEPSDNGPLFTELKFYQRAAKPEQIQKWIRTRKLKYLGVPKYWGSGLHDKNGKSYRFMIMDRFGSDLQKIYEANAKRFSRKTVLQLSLRILDILEYIHEHEYVHGDIKASNLLLNYKNPDQVYLVDYGLAYRYCPEGVHKEYKEDPKRCHDGTIEFTSIDAHNGVAPSRRGDLEILGYCMIQWLTGHLPWEDNLKDPKYVRDSKIRYRENIASLMDKCFPEKNKPGEIAKYMETVKLLDYTEKPLYENLRDILLQGLKAIGSKDDGKLDLSVVENGGLKAKTITKKRKKEIEESKEPGVEDTEWSNTQTEEAIQTRSRTRKRVQK,soluble
10,MPSLGEAPQDLQRSQERRRIERIFAQGGKGVASPHRFPGPLPMLQNIPTHVIAGPLGAGKTSLIRHLLSQRPAAERWAVLINEFGQIGLDAALLTRDEDGIALGEVAGGCLCCVNGAPFQVGLGRLLRKARPDRLLIEPSGLGHPAQLLKQLNEAPWKGVLAVQPCVLVLDAQALAAGKPLPRAQQDALSSAGLLVLNKDELLSDSDRLRVLEQLPDLPLFWTRHAALPLAELPGLGASAEAALEQSDIPQGLAQLPAVWSDPTLPICLSQSQEDGWSIGWRWHPSQQFDLVRVEHWLQNLDWRRAKLVLHSDQGWRSGNGLDNSPLNWLPSEWRRDSRLELIFSSPQDIAVLQASLDACRLLEHHHHHH,not soluble
11,MPSQITRSSHSSLPEVAPASGDAAGVSEQTPQQARTVAFFASGELAVAFGRTSTAPAQDSVRLLSALQRELDKQQPSWPTVAQLCHSLAEVAKTEQGWHQLASEDQAPAPALKDLLERCIGRLADMPASHASHDSLSLACEGLRTARLHQSVARLTARPPALARAIPDLLALTHLDPETLGAEPPVVSSYTLFSHFVHTAKQRTAELNDSLQRQPEAVVSLLRSHADTLNDLETLPGALQALTENCQDAPACNELRELAEVVGALLQLLREHGILPRLEAISIEPGEAPAPGHEAAEPRLTRSQALLKAGGNLVRKFDAYGALAPMDDKGLLALMRTPAPHLSPDQMHAFLNKHVLHLTQEQRDIVSNTPLPFAPEGDIEARCGMGFDEKLRLALANGSLVLSEEQLARLGHLPSAATTTSDVVKTLLEKPSSALSEAERDMLGAIVQANGQGQLDAWRAHNEQLPAVLSRSGLPSDVKDELLSLNQSMNAELGTLKNGASFKSRILASPAMLLALAPLPLAVAFVSKDNSYSSSLVAHFTKNAVFMAGLMMNELTNARTNVDHGLNRYFVTVLANAIVAQPTFARNEHLLEQVGFGIATAVASGAATLGVFNRESIVAAFKLAKSKLSRQDTGNASIPEEDHLAVVRHFDVSEHFAQQMKVATELYKQDKSITDIMNSSLTYLGTKSSEFQARFESVDALRAGLQLAEGERKADPDFYTKLGLVALTASIGAALVMLMKSMVGKADYAADGVWCVSEMLKLAMNPEVDMQKAVQVFKEIVGLNLVMTGFLGVNKVWNFLDKGIKGYASGAAVLTAANLTLPGMVGEVAGAAAGKGLSYLTDKGKAAHQAGRAAASWAGNYVGTSRLGSAVGTLQTAIPGRIAGGQVVAGLYDRFRYLTGSHPTPAQQAAGEP,not soluble
12,MPTAADNHWSMPPNPEKALMLAQRAVAVFVYDAVRLEGINFTLPEVQTLLQGVTVGGHRLSDQQIAVNQGEAWKLLFQMIRDGRFELTPDCAMALHGVAAKEEALEWGCFRSGSVLIAGTEYEPPAASELPTRFDRMIDELQHMDDVHDQAVHLFLTMARCQFFYDVNKRMGRFMMNGHLLSNGYPAINIPASSQLEFNELMLRFYDSGDQREMNAFVRSCMDERVVLIMKEELEHHHHHH,soluble
13,MPTETLSSVFVLVVLLPTSGLLPRTEAAFVASSSIEYCERSSNGEPFPCEKKMVVGLSVGSEQTIEAEEVVLLREAVDKTGDEKGKRVEFEPIRLVTTKSPVQYRYPIYYIRNFNAKPYEQRLRTSASSWCDDSSNPGSATCGVARDRRGDVIPYSQGFCCLCGACALSGICNPTSRSVGTCSVTGDTGMASCLRFSDLWYGGYTIGRGVVWYELQVKLSSGNNSTGGGSTGSKEFTMSLGPDKLTATSTEFGASARLIGDFAPPEMPLDLSGKMLFIPSEPRGHERVGAGYNEWIIVDTHLVSIRGTECNKVGVSYEGFATQGSRCDAYPGACLANQLEDYRDRDLEAETKGQQGKYMARFFAPFGFDPLANASAPAVAYQVTGTLSTMVTITISADKLNFVLSVSSGVVVGATVSGKVVHSYSRGSTITVTVLNTGDIEAQYTVVVGECTVNVQPMVAQTVYIPLQGSAQRRFTLIVQDSIEGEAKCNATLRNARGDVVDTRAISFGVKALKPSNGSQGGSTFENGRYSEEAKGESQCQQCSWFNLLCFLRHRCWWQPLVYVLPSVTLLMLLRRFLESQSRSRPRPQLHPDEHELRNTGAISSCHLPRAPYVNTVH,not soluble
14,MPTFLELNTTISVKEKELLTKEQFDKLLQAPNTTTLARLLHQSVYHLTVDDLNDLDRLESILMAELTKTYRWAFAETPQPDIVQLFTLRYTYHNVKVLLKAKASQADLSHLLLPIGDKPLVALEHLIRTMTSDEFPKEVVTEIQSIWAEYQDYQDIRVLEIGTDLAYFKALKQIAQRLEDPVFQQAVLIVIDLYNLITVRRAKSQNKPISFMMQLLSDEASRPSKTFITLEDDKDLMTWFENVTPDSYMTALKPYSEKLRQGTLQTTELEYLVDECLYHLFAKAKYQVDGPYVLARFLLAKSFEVKNLRLLAAALANDLPKERVIERMRPIA,not soluble
15,MPTKVLVNATYLHSYFREWVKGNIWIHGDRIVYAGERLPDRIDESCEIIDCRGYVLVPGYIEPHVHPFQLYNPHSFARYAAMYGTTTLLNDNLFFLLQLEHHHHHH,not soluble
16,MPTLIVLIGPTGVGKTELSLRLAENFHTSIVSADSRQLYAELKIGTAAPTPDQLKRVPHYLVGTLHLTDYYSAAQYEQEAMEILHQLFTEHEVVVLTGGSMMYVDAICKGIDDIPTVDAETRQVMLQKYEEEGLEQLCAELRLLDPDYYRIVDLKNPKRVIHALEICYMTGKTYTSFRTQQKKERPFRILKIGLTRDREELYDRINRRVDQMMEEGLLDEVRSVLSYRHLNSLNTVGYKELFKYLDGEWELPFAIEKIKQNSRIYSRKQMTWFKRDEEIRWFHPEQETEILEYLRLQNLTHLPSLDTFLEHHHHHH,soluble
17,MPTPKAFTLLGPTACGKTALALKIAETLPVEIISLDSALLYTGMDIGTAKPSASERAFVPHHLIDIITPVQTYSAARFVEDCTRLTGEITARGKCPLIVGGTMMYFRALTQGLNDLPEADACLRADLDEQKQMYGLDFLYRTLQKVDPETACRLKPNDSQRIGRALEVYYLTGRPMSAHLNGQPEHTLPFELYTAALIPEDRARLHENIALRFHLMLEQGFIGEVENLRRRYPGLTADSPAIRCVGYRQAWEHLDGATDRQTFIEKGIAATRQLAKRQLTWLRKTPLDCVADPFSDGTSGTRLIEAAKRFFGELEHHHHHH,soluble
18,MPTPYHLNMAAPLRIQLTPEEDRLLLELSLDPRTHKKTRLWAMMVRLAAEGWTAPKIAQHFHKDRTTVYLVLRRFLREGLQGLAYRKPPGAPRKFTPEMAAFVEERLAEDRVWTAPQLAAALAERFGVRLAPKVVARHLRAMGYVWRRTRYVPLGKPTEEEVKAFAEEEEEAKRGRRRG,soluble

# From the DeepSol protein solubility set
